Laboratory results published in patent US20050058645A1 (ZENYTH OPERATIONS, published 2005).

B1: mouse IL-13 (ligand, UniProt P20109 21-131, looked up)
chain: GPVPRSVSLPLTLKELIEELSNITQDQTPLCNGSMVWSVDLAAGGFCVALDSLTNISNCNAIYRTQRILHGLCNRKAPTTVSSLPDTKIEVAHFITKLLSYTKQLFRHGPF
B2: soluble hIL-13Rα1 (ECD) (receptor)
chain: GGGGAAPTETQPPVTNLSVSVENLCTVIWTWNPPEGASSNCSLWYFSHFGDKQDKKIAPETRRSIEVPLNERICLQVGSQCSTNESEKPSILVEKCISPPEGDPESAVTELQCIWHNLSYMKCSWLPGRNTSPDTNYTLYYWHRSLEKIHQCENIFREGQYFGCSFDLTKVKDSSFEQHSVQIMVKDNAGKIKPSFNIVPLTSRVKPDPPHIKNLSFHNDDLYVQWENPQNFISRCLFYEVEVNNSQTETHNVFYVQEAKCENPEFERNVENTSCFMVPGVLPDTLNTVRIRVKTNKLCYEDDKLWSNWSQEMSIGKKRNST
notes: also called immobilized hIL-13Rα1 (ECD)
B3: chimeric human IL-13Rα1-Fc (Fc fusion)
chain: B2 chain
notes: Bought (R & D Systems); Extracellular domain of IL-13Rα1 fused to Fc of human IgG; Expressed as preformed disulphide-bonded dimer; also called hIL-13Rα1-Fc; chimeric human receptor; not shown: Fc portion of human IgG
B4: CDR-grafted 1D9 Fab (Fab, V domains shown)
VH: EVQLVESGGGLVQPGGSLRLSCAASGFTFSGYGMSWVRQAPGKGLEWVATISGLGGYTYYPDSVKGRFTISRDNSKNTLYLQMNSLRAEDTAVYYCARRFYGDYVGAMDYWGQGTLVTVSS
VL: DIQMTQSPSSLSASVGDRVTITCRSSKSLLHSNGITYLYWYQQKPGKAPKLLIYQMSNLASGVPSRFSGSGSGTDFTLTISSLQPEDFATYYCAQNLELPFTFGQGTKVEIKR
B5: chimeric mouse IL-13Rα1-Fc (Fc fusion, UniProt O09030 26-340, looked up)
chain: ATEVQPPVTNLSVSVENLCTIIWTWSPPEGASPNCTLRYFSHFDDQQDKKIAPETHRKEELPLDEKICLQVGSQCSANESEKPSPLVKKCISPPEGDPESAVTELKCIWHNLSYMKCSWLPGRNTSPDTHYTLYYWYSSLEKSRQCENIYREGQHIACSFKLTKVEPSFEHQNVQIMVKDNAGKIRPSCKIVSLTSYVKPDPPHIKHLLLKNGALLVQWKNPQNFRSRCLTYEVEVNNTQTDRHNILEVEEDKCQNSESDRNMEGTSCFQLPGVLADAVYTVRVRVKTNKLCFDDNKLWSDWSEAQSIGKEQNST
notes: extracellular domain; Bought (R & D Systems); Preformed disulphide-bonded dimer; also called mIL-13Rα1-Fc; chimeric mouse receptor; not shown: Fc portion of human IgG

Tests used:
[1] = target: B5; assay: Biosensor, immobilized mouse IL-13, chimeric receptor in solution
From the text: (§1) A qualitative comparison of sensorgrams obtained in this study to data obtained previously with monomeric receptor protein, indicated a substantial improvement in binding kinetics. This improvement is attributed to a much slower off-rate for the dimeric form, compared with the monomeric form, of the receptor. To further quantify this interaction a complete dose-response analysis using both human and mouse chimeric receptor proteins and immobilized human and mouse IL-13 was undertaken.

[2] = target: B3; assay: as above
From the text: as §1

CDR-grafted 1D9 Fab [3] = target: B4; assay: Biosensor competition assay: soluble Fabs on immobilized hIL-13Rα1 (ECD), competed by soluble hIL-13Rα1 (ECD); ratio of the IC50 of the CDR-graft to that of the chimera
Method: (§2) FIGS. 11A and 11B are graphical representations of binding affinities of the chimeric and CDR-grafted Fab fragment. […] (B) Biosensor competition assay of soluble 1D9 chimeric or CDR-grafted Fab binding to immobilized hIL-13Rα1 (ECD) competed by soluble hIL-13Rα1 (ECD). Fold-difference in affinity is calculated from (IC₅₀/IC₅₀).

CDR-grafted 1D9 Fab [4] = target: B4; assay: Competition ELISA: phage displayed Fabs on plate bound hIL-13Rα1-Fc (ECD), competed by soluble hIL-13Rα1 (ECD); ratio of the IC50 of the CDR-graft to that of the chimera
[5] = target: T1, mouse-human chimeric 1D9 Fab (human, UniProt P01857 1-103 = IgG part; P01834 1-107, limits assumed); assay: Competition ELISA: phage displayed chimeric 1D9 Fab on plate bound hIL-13Rα1-Fc (ECD) (2.5 µg/ml), competed by titrated soluble hIL-13Rα1 (ECD)
T1 sequence (VH, as listed by the source limits assumed, chain 1 of 2): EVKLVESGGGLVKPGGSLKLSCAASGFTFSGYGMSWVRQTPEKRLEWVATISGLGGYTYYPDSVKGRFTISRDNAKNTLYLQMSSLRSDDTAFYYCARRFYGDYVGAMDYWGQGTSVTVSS
T1 sequence (VL, as listed by the source limits assumed, chain 2 of 2): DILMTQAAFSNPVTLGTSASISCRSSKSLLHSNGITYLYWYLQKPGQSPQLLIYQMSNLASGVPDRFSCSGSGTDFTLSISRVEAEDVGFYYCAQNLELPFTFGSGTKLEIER

CDR-grafted 1D9 Fab [6] = target: B4; assay: Competition ELISA: phage displayed CDR-grafted 1D9 Fab on plate bound hIL-13Rα1-Fc (ECD) (2.5 µg/ml), competed by titrated soluble hIL-13Rα1 (ECD)
[7] = target: T1, mouse-human chimeric 1D9 Fab; assay: Biosensor competition assay: soluble chimeric 1D9 Fab on immobilized hIL-13Rα1 (ECD), competed by titrated soluble hIL-13Rα1 (ECD)
Method: as §2

CDR-grafted 1D9 Fab [8] = target: B4; assay: Biosensor competition assay: soluble CDR-grafted 1D9 Fab on immobilized hIL-13Rα1 (ECD), competed by titrated soluble hIL-13Rα1 (ECD)
Method: as §2

[9] = target: T2, IL-13 (species not stated); assay: Biosensor, immobilized IL-13
T2 construct: the 100-fold comparison

soluble hIL-13Rα1 (ECD) = target: B2; assay: competition ELISA (phage displayed Fab) and Biacore competition (soluble Fab)
Method: as §2
The CDR-grafted Fab has similar affinity for IL-13Rα1 as the reference murine-human chimeric Fab.

[10] = target: B3; assay: ELISA: phage displayed Fab on plate bound hIL-13Rα1-Fc (ECD) (2.5 µg/ml), competed by soluble hIL-13Rα1 (ECD)
human IL-13 = human IL-13 (human, UniProt P35225 35-146, limits assumed); assay: Biosensor, immobilized IL-13
Chain of human IL-13 (P35225 35-146 limits assumed): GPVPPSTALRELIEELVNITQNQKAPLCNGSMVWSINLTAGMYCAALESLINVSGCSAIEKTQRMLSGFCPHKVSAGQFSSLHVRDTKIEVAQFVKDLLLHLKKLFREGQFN

mouse IL-13 = target: B1; assay: Biosensor, immobilized IL-13

B1 was tested, and the Kd [1] was 0.536 nM and the Kd [2] was 15.1 nM.

With B2 the “fold difference in affinity (CDR-graft against Chimera, IC50/IC50)” value (CDR-grafted 1D9 Fab [3]) was roughly 1.5 fold, the “fold difference in affinity (CDR-graft against Chimera, IC50/IC50)” value (CDR-grafted 1D9 Fab [4]) was roughly 3 fold and the IC50 [5] was 0.045 µg/mL. It also gave an IC50 (CDR-grafted 1D9 Fab [6]) of 0.127 µg/mL, an IC50 [7] of 6.66 nM and an IC50 (CDR-grafted 1D9 Fab [8]) of 9.61 nM.

In the case of B3, the “fold increase in affinity compared with the monomeric form of the receptor” value [9] is reported as 100 fold.

B4: binds (soluble hIL-13Rα1 (ECD)); binds [10].

With B5 the “fold greater affinity compared with the chimeric human receptor” value (human IL-13) was roughly 10 fold and the “fold greater affinity compared with the chimeric human receptor” value (mouse IL-13) was roughly 10 fold.
